Experimental data reported in paper PMC9482650, “Quantitative fragmentomics allow affinity mapping of interactomes” (Nature Communications, 2022).

Columns and labels:
Assay in all cases: holdup assay
Design in all cases: key: below the threshold = too weak to quantify, mostly under pKd 3.1 to 4
[1] = target: MAGI1_1, Q96QZ7
[2] = target: T1, DFNB31_2, Q9P202
T1 sequence (Q9P202 274-371, limits assumed, looked up): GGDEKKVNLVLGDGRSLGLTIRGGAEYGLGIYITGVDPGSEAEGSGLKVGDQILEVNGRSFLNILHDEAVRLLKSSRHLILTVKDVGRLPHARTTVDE

[3] = target: FRMPD2_3, Q68DX3
Chain of FRMPD2_3, Q68DX3 (Q68DX3 1073-1166): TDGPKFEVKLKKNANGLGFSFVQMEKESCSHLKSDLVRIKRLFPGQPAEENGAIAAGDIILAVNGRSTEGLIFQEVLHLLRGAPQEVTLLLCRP

[4] = target: T2, DLG3_1, Q92796
T2 sequence (Q92796 125-227, limits assumed, looked up): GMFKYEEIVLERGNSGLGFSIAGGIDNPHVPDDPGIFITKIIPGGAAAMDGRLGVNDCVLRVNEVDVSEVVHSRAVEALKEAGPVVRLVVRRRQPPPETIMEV

[5] = target: T3, PARD3B_1, Q8TEW8
T3 sequence (Q8TEW8 196-299, limits assumed, looked up): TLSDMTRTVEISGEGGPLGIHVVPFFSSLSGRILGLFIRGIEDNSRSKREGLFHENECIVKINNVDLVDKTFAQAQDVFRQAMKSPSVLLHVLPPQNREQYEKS

[6] = target: GIPC2, Q8TF65
Chain of GIPC2, Q8TF65 (Q8TF65 112-203): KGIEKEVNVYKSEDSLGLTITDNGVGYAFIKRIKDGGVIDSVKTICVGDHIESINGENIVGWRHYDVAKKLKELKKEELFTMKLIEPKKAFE

[7] = target: SCRIB_2, Q14160
Chain of SCRIB_2, Q14160 (Q14160 857-960): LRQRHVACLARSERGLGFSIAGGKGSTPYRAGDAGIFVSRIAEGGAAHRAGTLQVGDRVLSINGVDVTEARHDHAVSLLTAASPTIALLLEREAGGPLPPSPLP

[8] = target: T4, MPDZ_10, O75970
T4 sequence (O75970 1624-1722, limits assumed, looked up): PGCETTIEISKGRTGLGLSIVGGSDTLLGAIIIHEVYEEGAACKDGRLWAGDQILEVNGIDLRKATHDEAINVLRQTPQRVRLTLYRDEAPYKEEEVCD

[9] = target: T5, MPDZ_5, O75970
T5 sequence (O75970 695-796, limits assumed, looked up): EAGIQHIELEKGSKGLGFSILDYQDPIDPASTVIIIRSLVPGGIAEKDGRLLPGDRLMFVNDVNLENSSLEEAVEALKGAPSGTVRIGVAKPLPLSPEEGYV

[10] = target: Inadl_5, Q8NI35
Chain of Inadl_5, Q8NI35 (Q8NI35 673-780): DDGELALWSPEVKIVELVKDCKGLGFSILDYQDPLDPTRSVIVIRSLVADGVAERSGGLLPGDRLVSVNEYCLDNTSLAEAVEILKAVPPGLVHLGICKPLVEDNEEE

[11] = target: PDLIM1, O00151
Chain of PDLIM1, O00151 (O00151 1-87): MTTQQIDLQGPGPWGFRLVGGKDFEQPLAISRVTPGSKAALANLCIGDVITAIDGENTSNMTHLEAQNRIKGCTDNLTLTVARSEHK

[12] = target: MAGI2_2, Q86UL8
Chain of MAGI2_2, Q86UL8 (Q86UL8 410-522): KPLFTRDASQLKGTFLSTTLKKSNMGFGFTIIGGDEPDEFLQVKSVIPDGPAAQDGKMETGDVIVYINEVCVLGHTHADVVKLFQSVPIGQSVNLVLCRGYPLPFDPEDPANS

[13] = target: TJP2_1, Q9UDY2
Chain of TJP2_1, Q9UDY2 (Q9UDY2 24-128): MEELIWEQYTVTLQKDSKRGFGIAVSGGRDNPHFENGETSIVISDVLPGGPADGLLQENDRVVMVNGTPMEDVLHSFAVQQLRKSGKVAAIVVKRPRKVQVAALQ

[14] = target: SCRIB_1, Q14160
Chain of SCRIB_1, Q14160 (Q14160 718-814): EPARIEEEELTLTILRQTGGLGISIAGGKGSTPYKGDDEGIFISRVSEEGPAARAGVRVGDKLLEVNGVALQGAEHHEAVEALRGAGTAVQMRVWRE

[15] = target: DLG2_3, Q15700
[16] = target: Inadl_1, Q8NI35
Chain of Inadl_1, Q8NI35 (Q8NI35 113-229): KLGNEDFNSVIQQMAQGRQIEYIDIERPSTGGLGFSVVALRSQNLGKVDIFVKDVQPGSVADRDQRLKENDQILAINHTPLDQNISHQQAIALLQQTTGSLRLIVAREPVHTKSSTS

[17] = target: T6, NHERF3_1, Q5T2W1
T6 sequence (Q5T2W1 4-100, limits assumed, looked up): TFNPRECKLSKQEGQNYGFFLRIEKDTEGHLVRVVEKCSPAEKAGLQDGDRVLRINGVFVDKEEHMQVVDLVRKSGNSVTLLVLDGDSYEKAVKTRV

[18] = target: CASK, O14936
Chain of CASK, O14936 (O14936 487-570): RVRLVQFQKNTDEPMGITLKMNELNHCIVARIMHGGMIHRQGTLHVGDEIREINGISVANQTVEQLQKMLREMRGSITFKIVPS

[19] = target: GRIP2_3, Q9C0E4
Chain of GRIP2_3, Q9C0E4 (Q9C0E4 238-339): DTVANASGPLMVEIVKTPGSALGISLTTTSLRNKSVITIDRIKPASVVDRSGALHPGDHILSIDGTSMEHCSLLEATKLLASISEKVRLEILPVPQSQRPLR

[20] = target: GRID2IP_1, A4D2P6
Chain of GRID2IP_1, A4D2P6 (A4D2P6 1-87): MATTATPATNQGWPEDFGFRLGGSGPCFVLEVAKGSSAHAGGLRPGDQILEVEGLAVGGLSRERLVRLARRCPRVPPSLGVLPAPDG

[21] = target: T7, FRMPD1, Q5SYB0
T7 sequence (Q5SYB0 52-145, limits assumed, looked up): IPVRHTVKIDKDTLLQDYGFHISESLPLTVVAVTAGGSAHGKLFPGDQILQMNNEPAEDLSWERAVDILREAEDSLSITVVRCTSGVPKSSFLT

[22] = target: T8, LIN7A, O14910
T8 sequence (O14910 103-200, limits assumed, looked up): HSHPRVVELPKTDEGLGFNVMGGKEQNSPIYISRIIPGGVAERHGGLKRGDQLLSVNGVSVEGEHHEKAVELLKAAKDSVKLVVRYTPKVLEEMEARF

[23] = target: IL16_3, Q14005
Chain of IL16_3, Q14005 (Q14005 1107-1207): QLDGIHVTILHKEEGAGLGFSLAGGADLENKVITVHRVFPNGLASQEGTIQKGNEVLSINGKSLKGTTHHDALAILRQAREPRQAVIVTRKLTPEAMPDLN

[24] = target: Inadl_10, Q8NI35
Chain of Inadl_10, Q8NI35 (Q8NI35 1673-1763): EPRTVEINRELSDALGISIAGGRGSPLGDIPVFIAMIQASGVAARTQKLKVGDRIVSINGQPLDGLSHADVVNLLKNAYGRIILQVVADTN

[25] = target: MAGI2_3, Q86UL8
Chain of MAGI2_3, Q86UL8 (Q86UL8 600-682): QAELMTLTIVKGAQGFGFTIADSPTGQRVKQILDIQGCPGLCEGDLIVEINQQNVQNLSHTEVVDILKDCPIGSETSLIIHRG

[26] = target: T9, DFNB31_1, Q9P202
T9 sequence (Q9P202 135-233, limits assumed, looked up): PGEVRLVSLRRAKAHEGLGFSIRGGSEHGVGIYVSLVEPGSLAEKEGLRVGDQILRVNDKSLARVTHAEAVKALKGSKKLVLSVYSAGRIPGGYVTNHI

[27] = target: GRASP, Q7Z6J2
Chain of GRASP, Q7Z6J2 (Q7Z6J2 96-193): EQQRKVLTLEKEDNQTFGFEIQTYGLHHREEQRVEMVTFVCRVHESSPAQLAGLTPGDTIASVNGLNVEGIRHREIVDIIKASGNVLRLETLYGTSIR

[28] = target: T10, RADIL, Q96JH8
T10 sequence (Q96JH8 971-1071, limits assumed, looked up): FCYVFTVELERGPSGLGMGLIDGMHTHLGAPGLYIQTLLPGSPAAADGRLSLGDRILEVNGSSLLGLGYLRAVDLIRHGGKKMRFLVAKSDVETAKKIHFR

[29] = plain residues with an end cap or a label only (N-terminal biotin on a linker: ado-ado)
[30] = plain residues with an end cap or a label only (N-terminal biotin on a linker: none)
[31] = plain residues with an end cap or a label only (N-terminal biotin on a linker: ttds)
[32] = plain residues with an end cap or a label only (N-terminal biotin on a linker: gsgsgs; C-terminal amide)

Chain of MAGI1_1, Q96QZ7 (Q96QZ7 1-106): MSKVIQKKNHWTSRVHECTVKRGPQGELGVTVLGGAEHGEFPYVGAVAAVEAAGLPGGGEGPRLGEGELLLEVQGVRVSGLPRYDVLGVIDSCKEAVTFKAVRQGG

Q: How did the pKd [1, 29] turn out when LHLHGTGIQV [EPHA7, Q15375] was run?
A: 3.59

Q: What about the pKd [2, 29] of the same binder?
A: below the threshold

Q: What about the pKd [3, 29] of the same binder?
A: below the threshold

Q: What about the pKd [4, 29] of the same binder?
A: below the threshold

Q: And the pKd [5, 29]?
A: 3.72

Q: And the pKd [6, 29]?
A: below the threshold

Q: What about the pKd [7, 29] of the same binder?
A: below the threshold

Q: What about the pKd [8, 29] of the same binder?
A: below the threshold

Q: What about the pKd [9, 29] of the same binder?
A: 4.1

Q: And the pKd [10, 29]?
A: 4.04

Q: What about the pKd [11, 29] of the same binder?
A: below the threshold

Q: What about the pKd [12, 29] of the same binder?
A: 3.51

Q: What about the pKd [13, 29] of the same binder?
A: below the threshold

Q: And the pKd [14, 29]?
A: below the threshold

Q: And the pKd [15, 29]?
A: below the threshold

Q: What about the pKd [16, 29] of the same binder?
A: below the threshold

Q: And the pKd [17, 29]?
A: below the threshold

Q: What about the pKd [18, 29] of the same binder?
A: below the threshold

Q: What about the pKd [19, 29] of the same binder?
A: below the threshold

Q: What about the pKd [20, 29] of the same binder?
A: below the threshold

Q: And the pKd [21, 29]?
A: below the threshold

Q: What about the pKd [22, 29] of the same binder?
A: below the threshold

Q: What about the pKd [23, 29] of the same binder?
A: below the threshold

Q: What about the pKd [24, 29] of the same binder?
A: below the threshold

Q: What about the pKd [25, 29] of the same binder?
A: 3.63

Q: What about the pKd [26, 29] of the same binder?
A: 3.53

Q: What about the pKd [27, 29] of the same binder?
A: below the threshold

Q: What about the pKd [28, 29] of the same binder?
A: 4.58

Q: Which pKd [1, 30] does the source give for DSKPPLPPDEWV [MERS-E, K9N5R3] here?
A: below the threshold

Q: And the pKd [2, 30]?
A: below the threshold

Q: And the pKd [3, 30]?
A: 3.53

Q: What about the pKd [4, 30] of the same binder?
A: below the threshold

Q: And the pKd [5, 30]?
A: 3.5

Q: And the pKd [6, 30]?
A: below the threshold

Q: What about the pKd [7, 30] of the same binder?
A: 3.58

Q: And the pKd [8, 30]?
A: below the threshold

Q: And the pKd [9, 30]?
A: below the threshold

Q: And the pKd [10, 30]?
A: 3.74

Q: And the pKd [11, 30]?
A: below the threshold

Q: And the pKd [12, 30]?
A: below the threshold

Q: And the pKd [13, 30]?
A: 3.84

Q: And the pKd [14, 30]?
A: 4.52

Q: And the pKd [15, 30]?
A: below the threshold

Q: And the pKd [16, 30]?
A: 3.61

Q: What about the pKd [17, 30] of the same binder?
A: below the threshold

Q: What about the pKd [18, 30] of the same binder?
A: 3.48

Q: And the pKd [19, 30]?
A: 3.52

Q: And the pKd [20, 30]?
A: 3.57

Q: And the pKd [21, 30]?
A: below the threshold

Q: And the pKd [22, 30]?
A: below the threshold

Q: What about the pKd [23, 30] of the same binder?
A: below the threshold

Q: What about the pKd [24, 30] of the same binder?
A: below the threshold

Q: What about the pKd [25, 30] of the same binder?
A: below the threshold

Q: What about the pKd [26, 30] of the same binder?
A: 3.61

Q: And the pKd [27, 30]?
A: below the threshold

Q: And the pKd [28, 30]?
A: 4.06

Q: How did the pKd [1, 31] turn out when HRTCYLVTQL [ASIC3, Q9UHC3] was run?
A: 3.5

Q: What about the pKd [2, 31] of the same binder?
A: below the threshold

Q: And the pKd [3, 31]?
A: below the threshold

Q: What about the pKd [4, 31] of the same binder?
A: 3.34

Q: And the pKd [5, 31]?
A: 3.95

Q: What about the pKd [6, 31] of the same binder?
A: below the threshold

Q: And the pKd [7, 31]?
A: 3.73

Q: And the pKd [8, 31]?
A: 3.91

Q: What about the pKd [9, 31] of the same binder?
A: 3.4

Q: What about the pKd [10, 31] of the same binder?
A: below the threshold

Q: What about the pKd [11, 31] of the same binder?
A: 3.46

Q: What about the pKd [12, 31] of the same binder?
A: 4.14

Q: And the pKd [13, 31]?
A: 3.89

Q: What about the pKd [14, 31] of the same binder?
A: 5.54

Q: And the pKd [15, 31]?
A: 4.17

Q: And the pKd [16, 31]?
A: 3.52

Q: What about the pKd [17, 31] of the same binder?
A: 4.8

Q: What about the pKd [18, 31] of the same binder?
A: below the threshold

Q: And the pKd [19, 31]?
A: below the threshold

Q: And the pKd [20, 31]?
A: below the threshold

Q: And the pKd [21, 31]?
A: below the threshold

Q: What about the pKd [22, 31] of the same binder?
A: below the threshold

Q: And the pKd [23, 31]?
A: below the threshold

Q: What about the pKd [24, 31] of the same binder?
A: 3.84

Q: What about the pKd [25, 31] of the same binder?
A: 3.47

Q: What about the pKd [26, 31] of the same binder?
A: 3.67

Q: And the pKd [27, 31]?
A: 4.77

Q: And the pKd [28, 31]?
A: 4.43

Q: How did the pKd [1, 32] turn out when ELIQDTSTSFSTTREW [ARAP3_int, Q8WWN8] was run?
A: below the threshold

Q: What about the pKd [2, 32] of the same binder?
A: below the threshold

Q: And the pKd [3, 32]?
A: below the threshold

Q: What about the pKd [4, 32] of the same binder?
A: below the threshold

Q: And the pKd [5, 32]?
A: below the threshold

Q: And the pKd [6, 32]?
A: below the threshold

Q: What about the pKd [7, 32] of the same binder?
A: below the threshold

Q: And the pKd [8, 32]?
A: below the threshold

Q: And the pKd [9, 32]?
A: below the threshold

Q: What about the pKd [10, 32] of the same binder?
A: below the threshold

Q: And the pKd [11, 32]?
A: below the threshold

Q: What about the pKd [12, 32] of the same binder?
A: below the threshold

Q: What about the pKd [13, 32] of the same binder?
A: below the threshold

Q: And the pKd [14, 32]?
A: below the threshold

Q: What about the pKd [15, 32] of the same binder?
A: 3.69

Q: And the pKd [16, 32]?
A: below the threshold

Q: What about the pKd [17, 32] of the same binder?
A: below the threshold

Q: And the pKd [18, 32]?
A: below the threshold

Q: What about the pKd [19, 32] of the same binder?
A: below the threshold

Q: What about the pKd [20, 32] of the same binder?
A: below the threshold

Q: What about the pKd [21, 32] of the same binder?
A: below the threshold

Q: And the pKd [22, 32]?
A: below the threshold

Q: What about the pKd [23, 32] of the same binder?
A: below the threshold

Q: What about the pKd [24, 32] of the same binder?
A: below the threshold

Q: And the pKd [25, 32]?
A: 3.5

Q: And the pKd [26, 32]?
A: below the threshold

Q: What about the pKd [27, 32] of the same binder?
A: below the threshold

Q: What about the pKd [28, 32] of the same binder?
A: below the threshold
